Assay results as given in patent publication US20210079060A1.

Tests used:
CD19-scFvHER2 (FIG. 15A) [1] = test: flow cytometry, yeast display, right panel; FMC63 + GaM-A647 (FL4-A) against biotin-HER2 + strep-A488 (FL1-A)
CD19-FnEGFR (FIG. 15A) [2] = test: flow cytometry, yeast display, left panel; FMC63 + GaM-A647 (FL4-A) against biotin-EGFR + strep-A488 (FL1-A)
CD19-scFvHER2 (FIG. 15A) [3] = test: flow cytometry, yeast display, right panel; FMC63 + GaM-A647 (FL4-A) against biotin-HER2 + strep-A488 (FL1-A); Q8 30.1 also printed
CD19-FnEGFR (FIG. 15A) [4] = test: flow cytometry, yeast display, left panel; FMC63 + GaM-A647 (FL4-A) against biotin-EGFR + strep-A488 (FL1-A); Q8 64.9 also printed
[5] = target: yeast-displayed wild-type CD19 (extracellular domain) (human) (UniProt P15391); test: flow cytometry, yeast display, Aga2p-CD19, 22 °C pre-treat; mAb binding against CD19 per yeast
Sequence of yeast-displayed wild-type CD19 (extracellular domain) (human) (P15391 20-291): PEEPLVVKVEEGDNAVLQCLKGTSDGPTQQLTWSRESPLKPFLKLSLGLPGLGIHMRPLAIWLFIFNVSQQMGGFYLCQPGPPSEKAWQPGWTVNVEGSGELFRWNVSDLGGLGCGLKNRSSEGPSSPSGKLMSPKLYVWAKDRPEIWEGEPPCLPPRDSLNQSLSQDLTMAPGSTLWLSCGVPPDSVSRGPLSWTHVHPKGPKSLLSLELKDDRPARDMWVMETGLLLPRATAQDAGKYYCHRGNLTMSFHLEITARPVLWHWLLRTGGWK

[6] = target: yeast-displayed wild-type CD19 (extracellular domain) (human) (UniProt P15391); test: flow cytometry, yeast display, CD19-Aga2p, 22 °C pre-treat; mAb binding against CD19 per yeast

Substance	Q6, percent of events positive for FMC63 and biotin-target (CD19-scFvHER2 (FIG. 15A) [1])	Q6, percent of events positive for FMC63 and biotin-target (CD19-FnEGFR (FIG. 15A) [2])	Q5, percent of events positive for FMC63 and negative for biotin-target (CD19-scFvHER2 (FIG. 15A) [3])	Q5, percent of events positive for FMC63 and negative for biotin-target (CD19-FnEGFR (FIG. 15A) [4])	percent of yeast in gate R7 (CD19-displaying, no mAb signal; taken as the lower dashed gate) [5] [%]	percent of yeast in gate R8 (CD19-displaying, no mAb signal; taken as the lower dashed gate) [6] [%]
FMC63 (antibody)	35.1	0.034	31.8	35.1		
4G7 (antibody)					37.2	51.6
